Measured values taken from patent US20170015742A1 (published 2017).

Columns and labels:
[1] = target: recombinant murine PDGF-BB (mouse, UniProt P31240 82-190); assay: cell-based or functional assay
Human PDGF-BB = target: T1, Human PDGF-BB (human, UniProt P01127 82-190); assay: Biacore SPR (Example 1.1)
T1 construct: Recombinant human PDGF-BB, a dimer of two B chains; also called huPDGF-BB; hPDGF-BB
Description: (§1) Unreacted moieties on the biosensor surface were blocked with ethanolamine. For kinetic analysis, rate equations derived from the 1:1 Langmuir binding model were fitted simultaneously to multiple antigen injections (using global fit analysis) with the use of Scrubber 2 (BioLogic Software), Biacore Biaevaluation 4.0.1 software or Biacore T100 Evaluation software. Purified antibodies or DVD-Ig molecules were diluted in running buffer for capture across goat anti-human Fc reaction surfaces. Antibodies or DVD-Ig molecules to be captured as a ligand (1 μg/ml) were injected over reaction matrices at a flow rate of 10 μl/minute. During the assay, all measurements were referenced against the capture surface alone (i.e., with no captured antibody or DVD-Ig molecule). […] The equilibrium dissociation constant KD (M) of the reaction between antibodies and the target antigen was then calculated from the kinetic rate constants by the following formula: KD=Koff/Kₒₙ. Binding was recorded as a function of time and kinetic rate constants were calculated. In this assay, on-rates as fast as 10⁶M⁻¹s⁻¹ and off-rates as slow as 10⁻⁶ s⁻¹ could be measured.

[2] = target: T2, recombinant human VEGF165 (human, UniProt P15692 207-395); assay: cell-based or functional assay
T2 sequence (P15692 other isoform, or with tags, fused parts or gaps limits assumed): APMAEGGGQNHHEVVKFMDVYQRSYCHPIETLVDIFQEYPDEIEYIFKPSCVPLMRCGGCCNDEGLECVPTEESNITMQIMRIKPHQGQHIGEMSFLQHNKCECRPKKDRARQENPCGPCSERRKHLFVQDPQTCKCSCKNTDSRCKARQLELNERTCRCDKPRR

[3] = target: T2, recombinant human VEGF165; assay: SPR (Biacore), antibody captured by anti-human Fc, hVEGF165 in solution
Description: as §1
(§2) Affinity matured humanized anti-VEGF antibodies were characterized for hVEGF₁₆₅ binding and potency. Binding affinity of these molecules to hVEGF₁₆₅ was determined by Biacore analysis (Example 1.1). Potency was evaluated in both cell-based and ELISA formats. The ability to block binding of hVEGF₁₆₅ to hVEGFR2 was evaluated in a competition ELISA (Example 1.4) Inhibition of hVEGF₁₆₅-induced cell proliferation was assessed using HMVEC-d cells (Example 1.10).

[4] = target: T2, recombinant human VEGF165; assay: competition ELISA: antibody titrated against biotinylated hVEGF165, binding to plate-coated hVEGF-R2-Fc
Description: (§3) To identify molecules that could block the binding of hVEGF₁₆₅ to the hVEGF-R2 (KDR/Flk-1) receptor, a competition ELISA was performed. […] Plates were then washed four times with wash buffer (TBS, 0.05% Tween-20) and blocked with Superblock blocking buffer (Thermo Scientific, cat#37535). […] The pre-incubated sample/hVEGF₁₆₅ complex was added to the coated plate at 50 μL in duplicate and incubated for 30 minutes at 25° C. with shaking. Following incubation, plates were washed four times with wash buffer. Streptavidin-polyHRP-40 (Fitzgerald cal#65r-s104phrp) was diluted in assay diluent (10% Superblock containing 0.05% surfactamps) and added to plates (50 μL) for 45 minutes at 25° C. with shaking. Plates were washed four times with wash buffer and developed with the addition of Enhanced K-blue TMB substrate (Neogen cat#308177). The reaction was stopped with 2N sulfuric acid (VWR, cat# BDH3500-1) and the absorbance was read at 450 nm-570 nm. A decrease in observed optical density indicates the test molecule is blocking the hVEGF₁₆₅ binding to the hVEGF-R2-Fc. Data was analyzed using Softmax Pro 4.8 software and IC₅₀ values calculated using a sigmoidal dose response (variable slope) fit in GraphPad Prism 5.
as §2

Human VEGF-A 165 = target: T3, Human VEGF-A 165 (human, UniProt P15692 207-395); assay: receptor competition ELISA, hVEGF165 binding to coated hVEGF-R2-Fc
T3 construct: Recombinant; also called huVEGF-A165; hVEGF165
T3 sequence (P15692 other isoform, or with tags, fused parts or gaps limits assumed): as above
Description: as §3
Anti-VEGF-A antibodies derived from rat hybridomas were characterized for binding, function and cross-reactivity in a panel of assays. Supernatants were tested for the ability to bind hVEGF₁₆₅ (Example 1.3) and block binding of hVEGF₁₆₅ to hVEGFR2 in a competition ELISA format (Example 1.4).

T1 sequence (P01127 82-190 limits assumed): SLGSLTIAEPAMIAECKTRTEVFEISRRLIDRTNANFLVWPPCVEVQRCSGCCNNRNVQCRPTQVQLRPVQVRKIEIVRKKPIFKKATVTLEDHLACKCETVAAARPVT
Chain of recombinant murine PDGF-BB (P31240 82-190 limits assumed): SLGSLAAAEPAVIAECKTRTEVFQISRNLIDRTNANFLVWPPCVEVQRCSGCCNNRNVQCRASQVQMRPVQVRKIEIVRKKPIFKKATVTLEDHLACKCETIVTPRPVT

| Binder | Kd (Human PDGF-BB) [nM] | kon (Human PDGF-BB) [M⁻¹ s⁻¹] | IC50 (Human VEGF-A 165) [nM] | also measured |
| --- | --- | --- | --- | --- |
| 4G8.3-SL-9E8.4E anti-VEGF-A/anti-PDGF-BB DVD-Ig (PR-1575834) (bispecific antibody, human IgG1, kappa, L234A L235A) heavy: EVQLVQSGSELKKPGASVKVSCKASGYTFTNYGMYWVRQAPGQGLEWMGWINTETGKPTYADDFKGRFVFSLDTSVSTAYLQISSLKAEDTAVYYCARTNYYYRSYIFYFDYWGQGTMVTVSSASTKGPEVTLRESGPALVKPTQTLTLTCTFSGFSLSTYGMGVGWIRQPPGKALEWLANIWWDDDKYYNPSLKNRLTISKDTSKNQVVLTMTNMDPVDTATYYCARIESIGTTYSFDYWGQGTMVTVSSASTKGPSVFPLAPSSKSTSGGTAALGCLVKDYFPEPVTVSWNSGALTSGVHTFPAVLQSSGLYSLSSVVTVPSSSLGTQTYICNVNHKPSNTKVDKKVEPKSCDKTHTCPPCPAPEAAGGPSVFLFPPKPKDTLMISRTPEVTCVVVDVSHEDPEVKFNWYVDGVEVHNAKTKPREEQYNSTYRVVSVLTVLHQDWLNGKEYKCKVSNKALPAPIEKTISKAKGQPREPQVYTLPPSREEMTKNQVSLTCLVKGFYPSDIAVEWESNGQPENNYKTTPPVLDSDGSFFLYSKLTVDKSRWQQGNVFSCSVMHEALHNAYTQKSLSLSPGK light: DTVLTQSPATLSLSPGERATLSCRASESVSTHMHWYQQKPGQAPRLLIYGASNLESGVPARFSGSGSGTDFTLTISSLEPEDFAVYFCQQSWNDPFTFGQGTKLEIKRTVAAPSVFIFPPEFVLTQSPGTLSLSPGERATLSCERSSGDIGESYVSWYQQKPGQAPRLVIYADDQRPSGIPDRFSGSGSGTDFTLTISRLEPEDFAVYYCQSYDINIDIVFGGGTKVEIKRTVAAPSVFIFPPSDEQLKSGTASVVCLLNNFYPREAKVQWKVDNALQSGNSQESVTEQDSKDSTYSLSSTLTLSKADYEKHKVYACEVTHQGLSSPVTKSFNRGEC |  |  |  | Potency IC50 (nM) mPDGF-BB (NIH-3T3 proliferation) [1]: 0.772 nM |
| BDI-5G2-F9 (antibody, V domains shown) VH: QVTLKESGPGILQPSQTLSLTCTFSGFSLSTFGMGVGWIRQPSGKGLEWLANIWWDDDKYYNPSLKNRLTISKDTSNSQAFLEITNVDTADTATYYCARISTGISSYYVMDAWGQGASVTVSS VL: QFTLTQPKSVSGSLRSTITIPCERSSGDIGDTYVSWYQQHLGRPPINVIYGNDQRPSEVSDRFSGSIDSSSNSASLTITNLQMDDEADYFCQSYDSDIDIVFGGGTKLTVL | ≤ 0.0001 | ≥ 1e+07 |  |  |
| CL-34455-IgG (antibody, V domains shown, also called h4G8 CL-34455) VH: EVQLVQSGSELKKPGASVKVSCKASGYTFTNYGMYWVRQAPGQGLEWMGWIDTETGEPTYAQGFTGRFVFSLDTSVSTAYLQISSLKAEDTAVYYCARTNYYYPSYMFYFDYWGQGTMVTVSS VL: EIVLTQSPATLSLSPGERATLSCRASQSVGTHMHWYQQKPGQAPRLLIYGASKLESGVPARFSGSGSGTDFTLTISSLEPEDFAVYYCQQSWYDPLTFGQGTKLEIK |  |  |  | hVEGF165 IC50 (nM), Potency HMVEC-d (hVEGF165-induced proliferation) [2]: 0.105 nM; Kd [3]: 0.00046 nM; kon [3]: 2.2e+07 M⁻¹ s⁻¹; IC50 [4]: < 0.1 nM |
| BEW-164-C4 (antibody, IgG2b, V domains shown, Rat hybridoma antibody, isotype IgG2b/kappa; also called BEW-1B4-C4) VH: QIQLVQSGPELKKPGESVKISCKASGYSFTNYGMYWVKQAPGQGLQYMGWIDTETGKPTYTDDFKGRFVFFLETSASTAYLQINNLKNEDMATYFCARWSGDTAGIRGPWFAYWGQGTLVTVSS VL: DIRMTQSPASLSASLGETVNIECLASEDIYSDLAWYQQKPGKSPQLLIYNANDLQKGVPSRFSGSGSGTQYSLKINSLQSEDVATYFCQQYNYYPGTFGAGTKLELK |  |  | 0.18 |  |

Continued, in another order:

| Kd (Human PDGF-BB) [nM] | kon (Human PDGF-BB) [M⁻¹ s⁻¹] | IC50 (Human VEGF-A 165) [nM] | Binder | also measured |
| --- | --- | --- | --- | --- |
| ≤ 0.0001 | ≥ 1e+07 |  | BDI-5H1-F6 (antibody, V domains shown) VH: QVTLKESGPGILQPSQTLSLTCTFSGFSLSTFGMGVGWIRQPSGKGLEWLANIWWDDDKYYNPSLKNRLTISKDTSNSQAFLEITNVDTADTATYYCARISTGISSYYVMDAWGQGASVTVSS VL: QFTLTQPKSVSGSLRSTITIPCERSSGDIGDTYVSWYQQHLGRPPINVIYGNDQRPSEVSDRFSGSIDSSSNSASLTITNLQMDDEADYFCQSYDSDIDIVFGGGTKLTVL |  |
|  |  | 0.274 | BEW-9E10-E7 (antibody, IgG2a, V domains shown, Rat hybridoma antibody, isotype IgG2a/kappa) VH: QIQLLQSGPELKKPGESVKISCKASGYTFTNYGMYWVKQAPGQGLQYMGWIDTETGRPTYADDFKGRFVFFLETSASTAYLQINNLKNEDMATYFCARWSGDTTGIRGPWFAYWGQGTLVTVSS VL: DIRMTQSPASLSASLGETVNIECLASEDIYSDLAWYQQKPGRSPQLLIYNANGLQNGVPSRFGGSGSGTQYSLKINSLQSEDVATYFCQQYNYFPGTFGAGTKLELK |  |
